Measured values: patent publication US20230287109A1

Key:
rabbit VEGF (rabbit) = rabbit VEGF (rabbit) (UniProt G1T1L9); experiment: SPR, summary table, column Rabbit VEGF, Kd [M]
[1] = target: recombinant human VEGF (human) (UniProt P15692); experiment: cell-based or functional assay
Chain of recombinant human VEGF (human) (P15692 other isoform, or with tags, fused parts or gaps limits assumed): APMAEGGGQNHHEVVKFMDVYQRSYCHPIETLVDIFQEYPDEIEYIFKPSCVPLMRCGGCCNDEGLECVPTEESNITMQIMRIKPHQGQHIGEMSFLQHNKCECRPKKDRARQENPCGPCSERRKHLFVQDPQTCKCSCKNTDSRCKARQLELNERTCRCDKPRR

aflibercept (Fc fusion)
Kd (rabbit VEGF (rabbit)): 1.41 nM | IC50, VEGF reporter assay (KDR/NFAT-RE HEK293 cells, luminescence) [1]: 0.75 nM
